Reference: patent US20150118710
Where “and” joins values, the source holds several entries; their conditions need not be identical. Equal values may be shown once.

Legend:
[1] = tested on: Insulin glargine single chain precursor (Fglargine), glargine pro-peptide
[2] = biological target: Insulin glargine single chain precursor (Fglargine), glargine pro-peptide; remark: listed apart in the source

Row | Molecule | % conversion achieved (HPLC peak areas) [1] [%] | % yield increased (two chain glargine), clone without co-expression [1] | secretion of two chain glargine (mass analysis of secreted product) [1] | % conversion achieved (HPLC peak areas), Clone #2F6, GAP promoter [2] [%] | % conversion achieved (HPLC peak areas), Clone #3C1, GAP promoter [2] [%] | % conversion achieved (HPLC peak areas), Clone #4B7, GAP promoter [2] [%] | % conversion achieved (HPLC peak areas), Clone #5C5, GAP promoter [2] [%] | % conversion achieved (HPLC peak areas), Clone #IB4, GAP promoter [2] [%] | % conversion achieved (HPLC peak areas), Clone# 6D6, GAP promoter [2] [%] | % yield increased (two chain glargine), FLD1 promoter [2] [%] | % yield increased (two chain glargine), GAP promoter [2] [%]
1 | endogenous Kex2p (Kexin endoprotease) of Pichia pastoris | 0 | 5% and 0% | it is not possible to secrete two chain glargine directly into the medium using endogenous Kex2p alone | – | – | – | – | – | – | – | –
2 | ΔKex2p, 660 amino acid functional domain of Kexin endoprotease (Kex2p) from Pichia pastoris (protein) MYLPALRLACWILIGLRSTEALETSEREIFALKLDKSWLPTFLETFQDKFRYERQINGLDDYHVFSHSKNEEFQLENFKVKTLLTRDNANLHSELISHNVDEVHMLRPSHYLHKRAPVVMDKSEELREQIAKDFDIDDPLFAKQWHLFNPRYPGHDVNVSQVWYDGITGKGVVTAIVDDGLDMDSKDLKESFCEEGSWDFNANTRLPKPRLRDDHHGTRCAAEIAAKKGNKYCGVGVAYDSKVSGIRILSDKITPEDEALSLIYGLDVNDIYSCSWGPADNGITMQGPSSLVKEAMLKGVQDGRKGKGALYVFASGNGASSGDNCNFDGYTNSIYSITVGAIDIKGLHPPYAEACSAVMTVTYSSGSGEHIHTTDINDKCSDTHGGTSAAAPLAAGLYSLVYQANPDLTWRDIQWLTVLTAVPVNEQEPGWQKTAIGKMYSHKYGYGKIDAYALVNLARSPDFPYLKPQSWIYGTEVHESLNTSEANGVLTSKYELTQEAKDLMNFEKIEHVTVTVDIKAAERGKVLVELISPSGVVSELAPYRRMDKDKEGFPNWTFMSVAHWGEDGLGEWILKITNKEGNSVVLNSWQIKFFGESQDPEKAEKFSLTKKYDEILVNPPSSSTSTTVDTSSTEATFSSSSVSEASATETDVKETSTTGD | – | – | – | 9.44 | 31.4 | 33.6 | 45 | 13 | 59.5 | > 93 | 60
